From US20200283729A1

Experiments:
[1] = biological target: biotin-labeled recombinant FRa protein (R&D Systems, Inc) (UniProt P15328); test: flow cytometry; transduced primary human T cells stained with biotin-labeled recombinant FRA protein, then SA-PE; plotted against CD8
[2] = biological target: Folate receptor alpha on cells (SKOV3, A1847, T47D, 293T, IOSE6) (human) (UniProt P15328); test: cell-based or functional assay
[3] = biological target: Recombinant mesothelin-extracellular domain protein on beads (UniProt Q13421); test: cell-based or functional assay
Sequence of Recombinant mesothelin-extracellular domain protein on beads (Q13421 other isoform, or with tags, fused parts or gaps limits assumed): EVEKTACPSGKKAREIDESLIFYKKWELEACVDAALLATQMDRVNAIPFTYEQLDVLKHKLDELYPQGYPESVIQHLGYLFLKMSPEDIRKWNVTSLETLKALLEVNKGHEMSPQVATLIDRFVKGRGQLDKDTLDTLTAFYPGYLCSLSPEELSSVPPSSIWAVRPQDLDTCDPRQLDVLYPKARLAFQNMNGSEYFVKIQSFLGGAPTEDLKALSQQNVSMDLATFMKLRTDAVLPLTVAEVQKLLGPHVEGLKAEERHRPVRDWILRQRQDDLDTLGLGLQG

[4] = biological target: CD19-BBZ CAR on T cells; test: flow cytometry; T cells one day after CD19-BBZ CAR mRNA electroporation, stained with anti-mouse IgG Fab antibody

Sequence of biotin-labeled recombinant FRa protein (R&D Systems, Inc) (P15328 25-233 limits assumed): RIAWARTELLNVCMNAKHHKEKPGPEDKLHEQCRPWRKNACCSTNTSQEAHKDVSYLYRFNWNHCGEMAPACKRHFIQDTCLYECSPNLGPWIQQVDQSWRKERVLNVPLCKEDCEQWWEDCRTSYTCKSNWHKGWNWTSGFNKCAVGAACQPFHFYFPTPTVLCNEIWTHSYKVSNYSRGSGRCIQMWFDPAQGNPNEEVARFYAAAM
Sequence of Folate receptor alpha on cells (SKOV3, A1847, T47D, 293T, IOSE6) (human) (P15328 25-234, stated change not applied): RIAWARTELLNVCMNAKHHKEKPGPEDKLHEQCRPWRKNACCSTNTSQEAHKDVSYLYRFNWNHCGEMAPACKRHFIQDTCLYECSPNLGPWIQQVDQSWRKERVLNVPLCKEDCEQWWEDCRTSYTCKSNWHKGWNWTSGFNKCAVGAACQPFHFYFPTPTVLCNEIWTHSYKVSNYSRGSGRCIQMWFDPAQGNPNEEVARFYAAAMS

How did the percent of cells CD8+ and FRA CAR+ (upper right quadrant) [1] turn out when MOv19-27z CAR on human T cells was run?
Its percent of cells CD8+ and FRA CAR+ (upper right quadrant) is 41.2%.

And the percent of cells CD8- and FRA CAR+ (lower right quadrant) [1]?
Its percent of cells CD8- and FRA CAR+ (lower right quadrant) is 31.3%.

What about the surface CAR expression after exposure to SKOV3 cells [2] of the same substance?
The surface CAR expression after exposure to SKOV3 cells was 1 % of T cells.

Which % IFN-γ cytokine-producing cells after 6 hours with coated beads (flow cytometry) [3] does the source give for “anti-mesothelin CAR (mesoCAR, SS1 BBZ) on wild-type mouse T cells” here?
Its % IFN-γ cytokine-producing cells after 6 hours with coated beads (flow cytometry) is 7%.

For “anti-mouse IgG Fab antibody (detection reagent for the 19BBZ panel)”, which percent of cells in the CAR-positive gate [4] is on record?
The percent of cells in the CAR-positive gate was 98.5.
